In patent US20250312499A1, “KISSPEPTIN RECEPTOR (KISS1R) TARGETED THERAPEUTICS AND USES THEREOF” (priority 2024, published 2025):
Numbered stars: 1 amine (or outer) side, 2 acyl side, 3 side chain; on linkers, the order of the positions; unused ones are H or OH. Square brackets hold non-standard residues; d marks the D form. * marks the point of attachment. X2 = 4‑amino‑1‑((3-fluoro-4-methylbenzyl)glycyl)piperidine‑4‑carboxylic acid, Cc1ccc(CN(CC(=O)N2CCC(N[*:1])(C(=O)[*:2])CC2)[*:3])cc1F; X10 = 3‑(2-(2-(3-(4-iodophenyl)propanamido)ethoxy)ethoxy)propanoyl, O=C(CCc1ccc(I)cc1)NCCOCCOCCC(=O)*; X6 = 3‑(2-(2-(3-(p-tolyl)propanamido)ethoxy)ethoxy)propanoyl, Cc1ccc(CCC(=O)NCCOCCOCCC(=O)*)cc1; DOTA = O=C(O)CN1CCN(CC(=O)O)CCN(CC(=O)*)CCN(CC(=O)O)CC1; Butanoyl(4-(4-I-phenyl)) = O=C(CCCc1ccc(I)cc1)*; Api(1-amidino) = N=C(N)N1CCC(N)(C(=O)O)CC1; Phe(4-CN) = N#Cc1ccc(C[C@H](N)C(=O)O)cc1; d2Nal = N[C@H](Cc1ccc2ccccc2c1)C(=O)O; Palmitoyl = CCCCCCCCCCCCCCCC(=O)*; Cha = N[C@@H](CC1CCCCC1)C(=O)O; Lauroyl = CCCCCCCCCCCC(=O)*; Octanoyl = CCCCCCCC(=O)*; Ahx = NCCCCCC(=O)O; azaGly = NNC(=O)O; Sar = CNCC(=O)O

B1: Compound 336 (peptide)
peptide: {DOTA-Ahx}-[dK](Butanoyl(4-(4-I-phenyl)))[dY][d2Nal]NTF[azaGly]L[Api(1-amidino)]W-NH2
SMILES: CC(C)C[C@H](NC(=O)NNC(=O)[C@H](Cc1ccccc1)NC(=O)[C@@H](NC(=O)[C@H](CC(N)=O)NC(=O)[C@@H](Cc1ccc2ccccc2c1)NC(=O)[C@@H](Cc1ccc(O)cc1)NC(=O)[C@@H](CCCCNC(=O)CCCc1ccc(I)cc1)NC(=O)CCCCCNC(=O)CN1CCN(CC(=O)O)CCN(CC(=O)O)CCN(CC(=O)O)CC1)[C@@H](C)O)C(=O)NC1(C(=O)N[C@@H](Cc2c[nH]c3ccccc23)C(N)=O)CCN(C(=N)N)CC1
B2: Compound 331 (peptide)
peptide: Lauroyl-[dY]K(DOTA)NTF[azaGly]L[Api(1-amidino)]Y-NH2
SMILES: CCCCCCCCCCCC(=O)N[C@H](Cc1ccc(O)cc1)C(=O)N[C@@H](CCCCNC(=O)CN1CCN(CC(=O)O)CCN(CC(=O)O)CCN(CC(=O)O)CC1)C(=O)N[C@@H](CC(N)=O)C(=O)N[C@H](C(=O)N[C@@H](Cc1ccccc1)C(=O)NNC(=O)N[C@@H](CC(C)C)C(=O)NC1(C(=O)N[C@@H](Cc2ccc(O)cc2)C(N)=O)CCN(C(=N)N)CC1)[C@@H](C)O
B3: Compound 334 (peptide)
peptide: X10-[dY][dK](DOTA)NTF[azaGly]L[Api(1-amidino)]W-NH2
SMILES: CC(C)C[C@H](NC(=O)NNC(=O)[C@H](Cc1ccccc1)NC(=O)[C@@H](NC(=O)[C@H](CC(N)=O)NC(=O)[C@@H](CCCCNC(=O)CN1CCN(CC(=O)O)CCN(CC(=O)O)CCN(CC(=O)O)CC1)NC(=O)[C@@H](Cc1ccc(O)cc1)NC(=O)CCOCCOCCNC(=O)CCc1ccc(I)cc1)[C@@H](C)O)C(=O)NC1(C(=O)N[C@@H](Cc2c[nH]c3ccccc23)C(N)=O)CCN(C(=N)N)CC1
B4: Compound 332 (peptide)
peptide: Octanoyl-[dY]K(DOTA)NTF[azaGly]L[Api(1-amidino)]Y-NH2
SMILES: CCCCCCCC(=O)N[C@H](Cc1ccc(O)cc1)C(=O)N[C@@H](CCCCNC(=O)CN1CCN(CC(=O)O)CCN(CC(=O)O)CCN(CC(=O)O)CC1)C(=O)N[C@@H](CC(N)=O)C(=O)N[C@H](C(=O)N[C@@H](Cc1ccccc1)C(=O)NNC(=O)N[C@@H](CC(C)C)C(=O)NC1(C(=O)N[C@@H](Cc2ccc(O)cc2)C(N)=O)CCN(C(=N)N)CC1)[C@@H](C)O
B5: Compound 355 (peptide)
peptide: Octanoyl-[dY][dK](DOTA)NT[Cha][azaGly]L[4‑amino‑1‑carbamimidoylpiperidine‑4‑carboxylic acid(Sarcosine)][dW]-NH2
B6: Compound 354 (peptide)
peptide: Octanoyl-[dY][dK](DOTA)NTF[azaGly]L[4‑amino‑1‑carbamimidoylpiperidine‑4‑carboxylic acid(Sarcosine)]W-NH2
B7: Compound 17 (peptide)
peptide: {DOTA}-[Sar][Sar]F[azaGly]L[X2]W-NH2
SMILES: Cc1ccc(CNCC(=O)N2CCC(NC(=O)[C@H](CC(C)C)NC(=O)NNC(=O)[C@H](Cc3ccccc3)NC(=O)CN(C)C(=O)CN(C)C(=O)CN3CCN(CC(=O)O)CCN(CC(=O)O)CCN(CC(=O)O)CC3)(C(=O)N[C@@H](Cc3c[nH]c4ccccc34)C(N)=O)CC2)cc1F
B8: Compound 356 (peptide)
peptide: X6-[dY]K(DOTA)NT[Cha][azaGly]L[4‑amino‑1‑carbamimidoylpiperidine‑4‑carboxylic acid(Sarcosine)][dW]-NH2
B9: Compound 330 (peptide)
peptide: Palmitoyl-[dY]K(DOTA)NTF[azaGly]L[Api(1-amidino)]Y-NH2
SMILES: CCCCCCCCCCCCCCCC(=O)N[C@H](Cc1ccc(O)cc1)C(=O)N[C@@H](CCCCNC(=O)CN1CCN(CC(=O)O)CCN(CC(=O)O)CCN(CC(=O)O)CC1)C(=O)N[C@@H](CC(N)=O)C(=O)N[C@H](C(=O)N[C@@H](Cc1ccccc1)C(=O)NNC(=O)N[C@@H](CC(C)C)C(=O)NC1(C(=O)N[C@@H](Cc2ccc(O)cc2)C(N)=O)CCN(C(=N)N)CC1)[C@@H](C)O
B10: Compound 358 (peptide)
peptide: X6-[dY][dK](DOTA)NT[Cha][azaGly]L[4‑amino‑1‑carbamimidoylpiperidine‑4‑carboxylic acid(Sarcosine)][dW]-NH2
B11: Compound 335 (peptide)
peptide: {DOTA-Ahx}-[dK](4‑(p-tolyl)butanoyl)[dY][d2Nal]NTF[azaGly]L[Api(1-amidino)]W-NH2
B12: Compound 329 (peptide)
peptide: Lauroyl-[dY]K(DOTA)NTF[azaGly]L[Api(1-amidino)]W-NH2
SMILES: CCCCCCCCCCCC(=O)N[C@H](Cc1ccc(O)cc1)C(=O)N[C@@H](CCCCNC(=O)CN1CCN(CC(=O)O)CCN(CC(=O)O)CCN(CC(=O)O)CC1)C(=O)N[C@@H](CC(N)=O)C(=O)N[C@H](C(=O)N[C@@H](Cc1ccccc1)C(=O)NNC(=O)N[C@@H](CC(C)C)C(=O)NC1(C(=O)N[C@@H](Cc2c[nH]c3ccccc23)C(N)=O)CCN(C(=N)N)CC1)[C@@H](C)O
B13: Compound 353 (peptide)
peptide: Octanoyl-[dY][dK](DOTA)NTF[azaGly]L[4‑amino‑1‑carbamimidoylpiperidine‑4‑carboxylic acid(Sarcosine)][dW]-NH2
B14: Compound 333 (peptide)
peptide: X6-[dY]K(DOTA)NTF[azaGly]L[Api(1-amidino)][Phe(4-CN)]-NH2
SMILES: Cc1ccc(CCC(=O)NCCOCCOCCC(=O)N[C@H](Cc2ccc(O)cc2)C(=O)N[C@@H](CCCCNC(=O)CN2CCN(CC(=O)O)CCN(CC(=O)O)CCN(CC(=O)O)CC2)C(=O)N[C@@H](CC(N)=O)C(=O)N[C@H](C(=O)N[C@@H](Cc2ccccc2)C(=O)NNC(=O)N[C@@H](CC(C)C)C(=O)NC2(C(=O)N[C@@H](Cc3ccc(C#N)cc3)C(N)=O)CCN(C(=N)N)CC2)[C@@H](C)O)cc1
B15: Compound 357 (peptide)
peptide: X6-[dY]K(DOTA)NT[Cha][azaGly]L[4‑amino‑1‑carbamimidoylpiperidine‑4‑carboxylic acid(Sarcosine)]W-NH2
B16: Compound 338 (peptide)
peptide: X6-[dY][dK](DOTA)NTF[azaGly]L[Api(1-amidino)]W-NH2
SMILES: Cc1ccc(CCC(=O)NCCOCCOCCC(=O)N[C@H](Cc2ccc(O)cc2)C(=O)N[C@H](CCCCNC(=O)CN2CCN(CC(=O)O)CCN(CC(=O)O)CCN(CC(=O)O)CC2)C(=O)N[C@@H](CC(N)=O)C(=O)N[C@H](C(=O)N[C@@H](Cc2ccccc2)C(=O)NNC(=O)N[C@@H](CC(C)C)C(=O)NC2(C(=O)N[C@@H](Cc3c[nH]c4ccccc34)C(N)=O)CCN(C(=N)N)CC2)[C@@H](C)O)cc1

molecular target: human kisspeptin receptor (KISS1R) (human), Q969F8; experiment: radioligand competition, hKISS1R membranes; legend: A is <10 nM
Sequence (Q969F8 whole entry): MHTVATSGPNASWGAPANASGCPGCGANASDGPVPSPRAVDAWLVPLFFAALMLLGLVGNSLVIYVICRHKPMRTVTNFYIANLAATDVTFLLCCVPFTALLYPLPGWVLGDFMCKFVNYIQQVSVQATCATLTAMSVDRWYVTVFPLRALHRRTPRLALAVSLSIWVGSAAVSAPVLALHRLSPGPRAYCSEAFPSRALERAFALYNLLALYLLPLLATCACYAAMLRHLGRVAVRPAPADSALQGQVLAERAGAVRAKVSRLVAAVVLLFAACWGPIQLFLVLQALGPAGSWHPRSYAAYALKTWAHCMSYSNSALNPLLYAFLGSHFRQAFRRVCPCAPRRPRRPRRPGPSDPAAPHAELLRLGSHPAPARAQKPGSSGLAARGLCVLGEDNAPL

Ki, < 10 nM:
B1
B2
B3
B4
B5
B6
B7
B8
B9
B10
B11
B12
B13
B14
B15
B16
